Measured values taken from publication PMC10497406, “PCNA recruits cohesin loader Scc2 to ensure sister chromatid cohesion” (Nature Structural & Molecular Biology, 2023).
Numbering of substitutions follows the chain as printed. In names and notes the source's numbering stands.

T1: GST–Scc2^C1100 (Scc2 amino acids 394–1493 fused to GST) (S. cerevisiae, UniProt Q04002 394-1493)
T1 construct: also called nearly full-length Scc2 fused to GST; not shown: GST, N-terminal, kept
T1 sequence (looked up): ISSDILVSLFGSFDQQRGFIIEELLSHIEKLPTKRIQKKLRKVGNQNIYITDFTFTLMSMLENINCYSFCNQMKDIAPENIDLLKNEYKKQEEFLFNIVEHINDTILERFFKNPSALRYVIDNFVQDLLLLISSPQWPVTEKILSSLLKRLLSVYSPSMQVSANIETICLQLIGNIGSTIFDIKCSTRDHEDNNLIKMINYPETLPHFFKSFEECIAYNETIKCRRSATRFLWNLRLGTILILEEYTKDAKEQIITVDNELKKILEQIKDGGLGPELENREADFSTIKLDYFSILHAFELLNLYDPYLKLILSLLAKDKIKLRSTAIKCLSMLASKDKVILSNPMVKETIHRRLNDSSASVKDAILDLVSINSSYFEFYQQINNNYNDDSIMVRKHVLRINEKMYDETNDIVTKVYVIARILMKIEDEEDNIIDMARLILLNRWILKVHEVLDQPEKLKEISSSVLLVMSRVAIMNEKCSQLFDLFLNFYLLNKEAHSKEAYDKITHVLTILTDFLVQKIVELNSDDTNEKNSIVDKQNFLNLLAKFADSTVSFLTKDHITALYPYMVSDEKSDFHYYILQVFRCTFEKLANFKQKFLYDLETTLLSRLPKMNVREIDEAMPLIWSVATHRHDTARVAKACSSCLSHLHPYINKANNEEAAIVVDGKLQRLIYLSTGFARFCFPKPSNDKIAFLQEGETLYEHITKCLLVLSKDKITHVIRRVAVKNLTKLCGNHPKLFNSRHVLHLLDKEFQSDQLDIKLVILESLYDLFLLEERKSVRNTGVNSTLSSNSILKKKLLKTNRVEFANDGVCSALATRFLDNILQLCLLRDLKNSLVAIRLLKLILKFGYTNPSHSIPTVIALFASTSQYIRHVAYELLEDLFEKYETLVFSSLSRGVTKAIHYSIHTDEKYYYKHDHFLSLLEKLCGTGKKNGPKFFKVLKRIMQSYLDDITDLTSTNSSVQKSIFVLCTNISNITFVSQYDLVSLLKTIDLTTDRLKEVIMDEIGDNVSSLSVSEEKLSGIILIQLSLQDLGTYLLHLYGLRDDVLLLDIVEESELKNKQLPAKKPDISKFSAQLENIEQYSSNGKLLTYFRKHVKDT

B1: N-terminally His-tagged yeast Pol30 (PCNA) (natural protein, S. cerevisiae, UniProt P15873 1-258, looked up)
chain: MLEAKFEEASLFKRIIDGFKDCVQLVNFQCKEDGIIAQAVDDSRVLLVSLEIGVEAFQEYRCDHPVTLGMDLTSLSKILRCGNNTDTLTLIADNTPDSIILLFEDTKKDRIAEYSLKLMDIDADFLKIEELQYDSTLSLPSSEFSKIVRDLSQLSDSINIMITKETIKFVADGDIGSGSVIIKPFVDMEHPETSIKLEMDQPVDLTFGAKYLLDIIKGSSLSDRVGIRLSSEAPALFQFDLKSGFLQFFLAPKFNDEE
notes: Pol30 (PCNA), S. cerevisiae; no measurement of the oligomer here; also called HisPol30; yeast PCNA; not shown: His, N-terminal, kept
B2: GST–NIPBL-PIP2 (chicken NIPBL amino acids 2764–2783 fused to GST) (domain or fragment, UniProt F1NJ66 2764-2783, looked up)
chain: TNKVVQTLRSLYAAKDGTSS
notes: not shown: GST, N-terminal, kept
B3: GST–Scc2PIP (Scc2 residues 1476–1493 fused to GST) (domain or fragment, S. cerevisiae, UniProt Q04002 1476-1493, looked up)
chain: YSSNGKLLTYFRKHVKDT
notes: also called PIP of Scc2 fused to GST; last 18 amino acids of Scc2; not shown: GST, N-terminal, kept
B4: GST–NIPBL-pip2 (chicken NIPBL amino acids 2764–2783, Q2769A,L2771A,Y2775A, fused to GST) (domain or fragment, UniProt F1NJ66 2764-2783, looked up)
chain: TNKVVATARSLAAAKDGTSS
notes: as for B2
B5: GST–NIPBL^(C202 WT) (chicken NIPBL residues 2582–2783 fused to GST) (domain or fragment, UniProt F1NJ66 2582-2783, looked up)
chain: ANSKITEEVKRSIVKQYLDFKLLMEHLDPDEEEEDGEVSASTNARNKAITSLLGGGSPKNNAAETEDDESDGEDRGGGTSGSLRRSKRNSDSTELASQMNESVDVMDVIAICCPKYKDRPQIARVVQKTSNGFSVQWMAGSYSGSWTEAKRRDGRKLVPWVDTIKESDIIYKKIALTSANKLTNKVVQTLRSLYAAKDGTSS
notes: also called NIPBL C-terminal fragment (C202); not shown: GST, N-terminal, kept
B6: GST–NIPBL^(C202 pip1) (chicken NIPBL residues 2582–2783 with PIP1 mutated, fused to GST) (domain or fragment, UniProt F1NJ66 2582-2783, looked up)
chain: B5 chain with Q16A, L18A, F20A
notes: also called NIPBL^Q2597A,L2599A,F2601A; not shown: GST, N-terminal, kept

What was measured:
Details in all cases: both partners purified
[1] = molecular target: T1, GST–Scc2^C1100 (Scc2 amino acids …); assay: pull-down; GST–Scc2 fusions on glutathione Sepharose 4B beads, purified His-tagged yeast Pol30 (2.5 μg) in 0.7 ml binding buffer (1× PBS, 150 mM NaCl, 1% Triton X-100), overnight at 4 °C; western blot with anti-Pol30
[2] = molecular target: T2, N-terminally His-tagged chicken PCNA (chicken, UniProt Q9DEA3 1-262); assay: pull-down; GST–NIPBL fusions (chicken) on glutathione Sepharose 4B beads, recombinant N-terminally His-tagged chicken PCNA; blots with anti-PCNA and anti-GST
T2 construct: PCNA, chicken; also called HisPCNA; recombinant chicken PCNA; not shown: His, N-terminal, kept
T2 sequence (Q9DEA3 whole entry, the tested form may be a part): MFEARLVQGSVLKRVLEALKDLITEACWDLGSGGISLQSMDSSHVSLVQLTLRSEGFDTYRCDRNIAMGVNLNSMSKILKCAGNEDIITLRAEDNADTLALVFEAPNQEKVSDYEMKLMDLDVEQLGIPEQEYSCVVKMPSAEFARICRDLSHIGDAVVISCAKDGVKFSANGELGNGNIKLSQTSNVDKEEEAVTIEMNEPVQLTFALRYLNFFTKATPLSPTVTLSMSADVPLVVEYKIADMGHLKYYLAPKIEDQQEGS

[3] = molecular target: B1; assay: pull-down; GST–Scc2 fusions on glutathione Sepharose 4B beads, purified His-tagged yeast Pol30 (2.5 μg) in 0.7 ml binding buffer (1× PBS, 150 mM NaCl, 1% Triton X-100), overnight at 4 °C; western blot with anti-Pol30

Row | binding result [2] | Binder | also measured
1 | – | B1 | binding result [1]: binds
2 | binds | B2 | –
3 | – | B3 | binding result [3]: binds
4 | binds | B4 | –
5 | binds | B5 | –
6 | binds | B6 | –
